Laboratory results reported in PMC6957217, “Molecular anatomy of the receptor binding module of a bacteriophage long tail fiber” (PLoS Pathogens, 2019).

Target: the molecule itself
Test: SEC; Hi-Load 16/60 Superdex-200 in PBS pH 7.4; trimers eluted at the expected 81 kDa size

B1: Phage T4 LTF needle (gp37; amino acids 799–1026), wild type (domain or fragment)
chain: not shown
notes: bacteriophage T4 long tail fiber protein gp37, needle (domains D10 and D11), amino acids 799-1026; pCDF Duet-1 MCS1; also called gp37 needle; WT gp37; source: E. coli BL21 (DE3) pLysS, co-expressed with chaperones gp38 and gp57A, purified (HisTrap, Superdex-200 SEC, trimer peak)
  stoichiometry N: 3
